Consider seven molecules from patent US20250223364A1 (DREN BIO, published 2025).

In test [1] the target is HEK-Blue hDectin-1a cells (UniProt Q9BXN2). As to the kind of experiment: cell binding; HEK-Blue hDectin-1a cells.
In test [2] the target is HEK-Blue hDectin-1b cells (UniProt Q9BXN2). As to the kind of experiment: cell binding; HEK-Blue hDectin-1b cells.
The next test has as its target Human monocytes (human) (UniProt Q9BXN2). As to the kind of experiment: cell binding; human monocytes.
In another test the target is HEK293F hDectin-1a FL (UniProt Q9BXN2). As to the kind of experiment: cell binding; HEK293F hDectin-1a FL cells.
Test [3] has as its target cynomolgus monkey Dectin-1 (cynomolgus monkey). As to the kind of experiment: flow cytometry on cynomolgus monkey monocytes. (In general: Flow cytometry measures light scatter and fluorescence of single cells or particles in a stream.)
In test [4] the target is T1, Dectin-1-expressing HEK cells (human, UniProt Q9BXN2 1-247).
T1 chain: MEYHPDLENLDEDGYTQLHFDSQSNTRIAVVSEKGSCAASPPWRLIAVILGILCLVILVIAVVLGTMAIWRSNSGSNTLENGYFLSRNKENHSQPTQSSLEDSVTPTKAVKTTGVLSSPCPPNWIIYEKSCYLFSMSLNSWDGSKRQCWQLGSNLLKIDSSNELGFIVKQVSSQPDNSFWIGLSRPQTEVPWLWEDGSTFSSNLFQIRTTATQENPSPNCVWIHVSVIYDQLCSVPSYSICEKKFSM
As to the kind of experiment: flow cytometry; HEK cells.

The target of test [5] is T2, cynomolgus monkey Dectin-1 (cynomolgus monkey, UniProt A0A2K5UXY6 35-281).
T2 construct: whole, on cells; also called cynomolgus Dectin-1; Dectin-1 on cynomolgus monkey monocytes
T2 sequence: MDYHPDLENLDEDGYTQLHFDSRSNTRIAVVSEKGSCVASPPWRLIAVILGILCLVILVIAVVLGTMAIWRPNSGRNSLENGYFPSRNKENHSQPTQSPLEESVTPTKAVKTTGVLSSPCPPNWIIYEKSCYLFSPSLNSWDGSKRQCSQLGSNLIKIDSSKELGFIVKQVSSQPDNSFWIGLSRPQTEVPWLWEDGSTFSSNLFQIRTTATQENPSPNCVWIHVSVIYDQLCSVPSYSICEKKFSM
As to the kind of experiment: flow cytometry on cynomolgus monkey monocytes.

Test [6] concerns the target T3, human Dectin-1 (isoform not given) (human, UniProt Q9BXN2 1-247).
T3 construct: whole, on cells; also called hDectin-1; Dectin-1 on human monocytes
T3 sequence (looked up): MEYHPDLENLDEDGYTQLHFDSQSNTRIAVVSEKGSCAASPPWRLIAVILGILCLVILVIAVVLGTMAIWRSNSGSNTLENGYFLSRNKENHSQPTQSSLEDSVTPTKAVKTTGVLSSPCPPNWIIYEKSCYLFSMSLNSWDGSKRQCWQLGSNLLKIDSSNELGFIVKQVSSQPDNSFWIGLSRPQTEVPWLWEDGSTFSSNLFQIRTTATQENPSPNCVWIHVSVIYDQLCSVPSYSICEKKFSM
As to the kind of experiment: flow cytometry on HEK 293 cells stably overexpressing human Dectin-1.

As a reminder, the EC50 is the concentration giving half of the maximal effect. As to 15E2, the EC50 in test [1] turned out to be 1.2 nM; in test [2] it was 9.3 nM; with Human monocytes (human), 0.6 nM; with HEK293F hDectin-1a FL, 1.4 nM.
In the case of 15E2 commercial anti-Dectin-1 antibody, the EC50 in test [3] came to 14 nM.
As for “259931 commercial anti-Dectin-1 antibody”, the EC50 in test [3] turned out to be 16 nM.
Regarding GE2, the EC50 came to 1.9 nM in test [1], 12 nM in test [2], 1.4 nM in the test with Human monocytes (human) and 2.4 nM with HEK293F hDectin-1a FL.

B1: 2m24/RSV (bispecific antibody)
chain 1: QVQLVQSGAEVKKPGASVKVSCKSSGYTFTDYYIHWVRQAPGQGLEWMGWINPNSGDTNYAQKFQGRITMTRDTSISTAYLELSRLRSDDTAVFYCARNSGSYSFGYWGQGTLVTVSS
chain 2: DIQMTQSPSSVSASVGDRVTITCRASQGISSWLAWYQQKPGKAPKLLIFGASSLQSGVPSRFSGSGSGTDFTLTVSSLQPEDFATYYCQQAYSFPFTFGPGTKVDIE
chain 3: QVTLRESGPALVKPTQTLTLTCTFSGFSLSTSGMSVGWIRQPPGKALEWLADIWWDDKKDYNPSLKSRLTISKDTSANQVVLKVTNMDPADTATYYCARSMITNWYFDVWGAGTTVTVSS
chain 4: DIQMTQSPSTLSASVGDRVTITCKCQLSVGYMHWYQQKPGKAPKLLIYDTSKLASGVPSRFSGSGSGTAFTLTISSLQPDDFATYYCFQGSGYPFTFGGGTKLEIK
Molecule B1 yielded an EC50 in test [4] of 1.6 nM.

B2: anti-human Dectin-1 antibody clone 2M24 (mIgG1) (antibody, V domains shown)
VH: QVQLVQSGAEVKKPGASVKVSCKSSGYTFTDYYIHWVRQAPGQGLEWMGWINPNSGDTNYAQKFQGRITMTRDTSISTAYLELSRLRSDDTAVFYCARNSGSYSFGYWGQGTLVTVSS
VL: DIQMTQSPSSVSASVGDRVTITCRASQGISSWLAWYQQKPGKAPKLLIFGASSLQSGVPSRFSGSGSGTDFTLTVSSLQPEDFATYYCQQAYSFPFTFGPGTKVDIE
For the molecule B2, the EC50 in test [5] was 0.3 nM.

B3: Fab 2M24-mSA fusion protein (Fab, V domains shown)
VH: QVQLVQSGAEVKKPGASVKVSCKSSGYTFTDYYIHWVRQAPGQGLEWMGWINPNSGDTNYAQKFQGRITMTRDTSISTAYLELSRLRSDDTAVFYCARNSGSYSFGYWGQGTLVTVSS
VL: DIQMTQSPSSVSASVGDRVTITCRASQGISSWLAWYQQKPGKAPKLLIFGASSLQSGVPSRFSGSGSGTDFTLTVSSLQPEDFATYYCQQAYSFPFTFGPGTKVDIE
In test [6], B3 gave an EC50 of 1.45 nM.
